Two molecules from patent US7572764B2, “Uses of chemically-modified cholinesterases for detoxification of organophosporus compounds” (priority 2001, dated 2009) can be followed below.

The data set in a line: Clearance experiments in mice, pharmacokinetic profiles. How it is done:
The pharmacokinetic profiles of non-modified and various preparations of PEG-modified AChE were resolved. Clearance experiments in mice (3 to 6 ICR male mice per enzyme sample) and analysis of pharmacokinetic profiles were carried out as described essentially previously [Kronman, C., et al. (1992), Gene 121, 295-304]. The study was approved by the local ethical committee on animal experiments. Mice were injected with the various rHuAChE preparations (40 μg/mouse in 0.2 ml PBS). Residual AChE activity in blood samples was measured and all values were corrected for background hydrolytic activity in the blood (using samples withdrawn 1 hour before performing the experiment). AChE activity values in samples removed immediately after injection were assigned a value of 100% and used for calculation of residual activity. […] This model enables determination of the parameters A and B which represent the fractions of the material removed from the circulation in the first-fast and second-slow elimination phases respectively, and T1/2α and T1/2β which represent the circulatory half-life values of the enzyme in the fast and slow phases. The pharmacokinetic parameters MRT (mean residence time, which reflects the average length of time the administered molecules are retained in the organism) and CL (clearance, which represents the proportionality factor relating the rate of substance elimination to its plasma concentration (CL=dose/area under the concentration-time curve), were independently obtained by analyzing the clearance data according to a noncompartmental pharmacokinetic model using the WinNonlin computer program. The comparative results are set forth in Table 3 below.

B1: AChE-PEG-5000 high ratio (conjugate, UniProt P22303 32-614, looked up)
Acetylcholinesterase: EGREDAELLVTVRGGRLRGIRLKTPGGPVSAFLGIPFAEPPMGPRRFLPPEPKQPWSGVVDATTFQSVCYQYVDTLYPGFEGTEMWNPNRELSEDCLYLNVWTPYPRPTSPTPVLVWIYGGGFYSGASSLDVYDGRFLVQAERTVLVSMNYRVGAFGFLALPGSREAPGNVGLLDQRLALQWVQENVAAFGGDPTSVTLFGESAGAASVGMHLLSPPSRGLFHRAVLQSGAPNGPWATVGMGEARRRATQLAHLVGCPPGGTGGNDTELVACLRTRPAQVLVNHEWHVLPQESVFRFSFVPVVDGDFLSDTPEALINAGDFHGLQVLVGVVKDEGSYFLVYGAPGFSKDNESLISRAEFLAGVRVGVPQVSDLAAEAVVLHYTDWLHPEDPARLREALSDVVGDHNVVCPVAQLAGRLAAQGARVYAYVFEHRASTLSWPLWMGVPHGYEIEFIFGIPLDPSRNYTAEEKIFAQRLMRYWANFARTGDPNEPRDPKAPQWPPYTAGAQQYVSLDLRPLEVRRGLRAQACAFWNRFLPKLLSATDTLDEAERQWKAEFHRWSSYMVHWKNQFDHYSKQDRCSDL
modifications: PEG-5000, high ratio
B1: the “T1/2[…]” value (circulatory half-life, fast phase, ICR mice, 40 μg/mouse) was 0.467 ± 0.083 h. The same molecule yielded a T1/2β (circulatory half-life, slow phase, ICR mice, 40 μg/mouse) of 9 ± 1.17 h. The “A (% of total)” value (fraction removed in first-fast elimination phase, ICR mice, 40 μg/mouse) was 46 ± 3 % of total. Further, for the setting “fraction removed in second-slow elimination phase, ICR mice, 40 μg/mouse”, the “B (% of total)” value is listed as 64 ± 3 % of total. For the same molecule, the MRT (mean residence time, noncompartmental model, mice) came out at 12.3 ± 1.33 h. For the same molecule, the Clearance (noncompartmental model, ICR mice, 40 μg/mouse) was 0.22 mL/min/kg.

B2: PEGylated BChE (partially sialylated) (conjugate, UniProt P06276 29-602, looked up)
Cholinesterase: EDDIIIATKNGKVRGMNLTVFGGTVTAFLGIPYAQPPLGRLRFKKPQSLTKWSDIWNATKYANSCCQNIDQSFPGFHGSEMWNPNTDLSEDCLYLNVWIPAPKPKNATVLIWIYGGGFQTGTSSLHVYDGKFLARVERVIVVSMNYRVGALGFLALPGNPEAPGNMGLFDQQLALQWVQKNIAAFGGNPKSVTLFGESAGAASVSLHLLSPGSHSLFTRAILQSGSFNAPWAVTSLYEARNRTLNLAKLTGCSRENETEIIKCLRNKDPQEILLNEAFVVPYGTPLSVNFGPTVDGDFLTDMPDILLELGQFKKTQILVGVNKDEGTAFLVYGAPGFSKDNNSIITRKEFQEGLKIFFPGVSEFGKESILFHYTDWVDDQRPENYREALGDVVGDYNFICPALEFTKKFSEWGNNAFFYYFEHRSSKLPWPEWMGVMHGYEIEFVFGLPLERRDNYTKAEEILSRSIVKRWANFAKYGNPNETQNNSTSWPVFKSTEQKYLTLNTESTRIMTKLRAQQCRFWTSFFPKVLEMTGNIDEAEWEWKAGFHRWNNYMMDWKNQFNDYTSKKESCVGL
modifications: PEG; partially sialylated
In the case of B2, the “circulatory residence time (in words)” value (mice) is on record as “significantly increased”.

One may read the MRT as the average time that molecules of a dose stay in the body.
